# What was measured:
# Type in all cases: biochemical
# [1] = Metabolism of ritonavir by P450 aluC09 and mutants; details: percent of substrate being converted; 0.125 mg/ml, 27° C., 16-20 hours; [CYP] per enzyme as in Table 8
# Method in brief: (§1)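 Read-out was substrate conversion by UPLC-MS after acetonitrile extraction. Reactions had contained lyophilised aluC09 mutant enzymes with ferredoxin and ferredoxin reductase partners, substrate at 0.125 mg/ml, and a glucose-6-phosphate dehydrogenase NADPH-regenerating system, shaken 16-20 hours at 27° C.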
# [2] = Metabolism of BIRB796 by P450 aluC09 and mutants; details: percent of substrate being converted; 0.125 mg/ml, 27° C., 16-20 hours; [CYP] per enzyme as in Table 8
# Method in brief: as §1
# [3] = Metabolism of celecoxib by P450 aluC09 and mutants; details: percent of substrate being converted; 0.125 mg/ml, 27° C., 16-20 hours; [CYP] per enzyme as in Table 8
# Method in brief: as §1
# [4] = Metabolism of epothilone B by P450 aluC09 and mutants; details: percent of substrate being converted; 0.125 mg/ml, 27° C., 16-20 hours; [CYP] per enzyme as in Table 8
# Method in brief: as §1
# [5] = Hydroxylation / de-N-ethylation of napropamide catalysed by cytochrome P450 aluC09 and mutants; details: for Desethyl Napropamide (1.62 min) / Desethyl-hydroxy-Napropamide (1.41 min) / Hydroxy-Napropamide (1) (1.53 min) / Hydroxy-Napropamide (2), (1.52 min) / M-2Da (unidentified) (1.89 min) / Napropamide (substrate): % by UV peak area at 275 nm, 0.125 mg/ml substrate, 27° C., 16-20 hours; for Hydroxylated Ratio 2:1: napropamide, ratio of UV peak areas
# Method in brief: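 Conversion of napropamide (0.125 mg/ml) to hydroxylated and de-ethylated metabolites was measured by UPLC-MS after acetonitrile extraction. Reactions ran 16-20 h at 27° C in pH 7.4 potassium phosphate (50 mM) with 5 mM MgCl2, 1 mM NADP, 5 mM G6P and 2 UN/ml G6PDH. Enzymes were lyophilised P450 aluC09 variants, ferredoxin aluF03 and ferredoxin reductase SCF15A.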
# [6] = O-demethylation of indomethacin catalysed by cytochrome P450 aluC09 and mutants; details: % by UV peak area at 275 nm; 0.125 mg/ml substrate, 27° C., 16-20 hours
# Method in brief: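 Conversion was quantified by UPLC-UV/MS after acetonitrile extraction of 16-20 h, 27° C. shaken reactions. These contained 0.125 mg/ml substrate, mutant P450 with partner ferredoxin and reductase, 1 mM NADP plus 5 mM G6P and 2 U/ml G6PDH, in pH 7.4 phosphate with 5 mM MgCl2.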
# [7] = Metabolism of tivantinib by P450 aluC09 and mutants; details: percent of substrate being converted; 0.125 mg/ml, 27° C., 16-20 hours; [CYP] per enzyme as in Table 8
# Method in brief: as §1
# [8] = Hydroxylation of flufenamic acid catalysed by cytochrome P450 aluC09 and mutants; details: for Flufenamic Acid (Substrate) 1.93 mins / Hydroxy-Flufenamic Acid (1) 1.69 mins / Hydroxy-Flufenamic Acid (2) 1.65 mins: % by UV peak area at 275 nm, 0.125 mg/ml substrate, 27° C., 16-20 hours; for Hydroxylated Ratio 1:2: flufenamic acid, ratio of UV peak areas at 275 nm
# Method in brief: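 Conversion measured by UPLC-MS (UV and MS) after acetonitrile extraction, following 16-20 h shaking at 27° C. Reaction: 0.125 mg/ml substrate, P450 mutant plus ferredoxin aluF03 and reductase SCF15A, 5 mM G6P, 1 mM NADP, 2 U/ml G6PDH, pH 7.4 phosphate with 5 mM MgCl2.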
# [9] = Metabolism of ruxolitinib by P450 aluC09 and mutants; details: percent of substrate being converted; 0.125 mg/ml, 27° C., 16-20 hours; [CYP] per enzyme as in Table 8
# Method in brief: as §1
# [10] = Hydroxylation of diclofenac catalysed by cytochrome P450 aluC09 and mutants (UPLC-PDA-MS); details: for 4′,5-dihydroxy-diclofenac 1.38 mins / 4′-hydroxy-diclofenac (1) 1.62 mins / 5-hydroxy-diclofenac (2) 1.58 mins / Diclofenac (Substrate) 1.81 mins: % by UV peak area at 275 nm, 0.125 mg/ml substrate, 27° C., 16-20 hours; for Hydroxylated Ratio hydroxy 1:hydroxy 2: diclofenac, ratio of UV peak areas at 275nm
# Method in brief: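 Conversion of diclofenac (0.125 mg/ml) to hydroxy metabolites measured by UPLC with UV and MS detection, identities confirmed by authentic samples. Reactions used P450 aluC09 variants with ferredoxin aluF03, reductase SCF15A and an NADP/G6P/G6PDH recycling system, pH 7.4 phosphate, 27° C, 16-20 hours.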
# [11] = Metabolism of 4-pyrrolidylacetophenone by P450 aluC09 and mutants; details: percent of substrate being converted; 0.125 mg/ml, 27° C., 16-20 hours; [CYP] per enzyme as in Table 8
# Method in brief: as §1
# [12] = Hydroxylation of aceclofenac catalysed by cytochrome P450 aluC09 and mutants; details: for Aceclofenac (Substrate) (1.80 mins) / Dihydroxy-Aceclofenac (1.42 mins) / Hydroxy-Aceclofenac (1) (1.64 min) / Hydroxy-Aceclofenac (2) (1.60 min): % by UV peak area at 275 nm, 0.125 mg/ml substrate, 27° C., 16-20 hours; for Hydroxylated Ratio 2:1: aceclofenac, ratio of UV peak areas at 275 nm
# Method in brief: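 Conversion was assessed by UPLC-MS (UV and MS detection) after acetonitrile extraction of reactions run 16-20 h at 27° C, shaking. Reactions contained substrate at 0.125 mg/ml, P450 mutant plus ferredoxin and reductase partners, 1 mM NADP with glucose-6-phosphate regeneration, in phosphate buffer pH 7.4.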
# [13] = Metabolism of bosentan by P450 aluC09 and mutants; details: percent of substrate being converted; 0.125 mg/ml, 27° C., 16-20 hours; [CYP] per enzyme as in Table 8
# Method in brief: as §1
# [14] = Metabolism of tofacitinib by P450 aluC09 and mutants; details: percent of substrate being converted; 0.125 mg/ml, 27° C., 16-20 hours; [CYP] per enzyme as in Table 8
# Method in brief: as §1
# [15] = Metabolism of buparvaquone by P450 aluC09 and mutants; details: percent of substrate being converted; 0.125 mg/ml, 27° C., 16-20 hours; [CYP] per enzyme as in Table 8
# Method in brief: as §1
# [16] = Metabolism of valsartan by P450 aluC09 and mutants; details: percent of substrate being converted; 0.125 mg/ml, 27° C., 16-20 hours; [CYP] per enzyme as in Table 8
# Method in brief: as §1
Molecule,% conversions (avg) Ritonavir [1] [%],% conversions (avg) BIRB796 [2] [%],% conversions (avg) Celecoxib [3] [%],% conversions (avg) Epothilone B [4] [%],Desethyl Napropamide (1.62 min) [5] [%],Desethyl-hydroxy-Napropamide (1.41 min) [5] [%],Hydroxy-Napropamide (1) (1.53 min) [5] [%],"Hydroxy-Napropamide (2), (1.52 min) [5] [%]",M-2Da (unidentified) (1.89 min) [5] [%],Napropamide (substrate) [5] [%],Hydroxylated Ratio 2:1 [5],Indomethacin (1.74 mins) [6] [%],O-demethyl-Indomethacin (1.52 mins) [6] [%],% conversions (avg) Tivantinib [7] [%],Flufenamic Acid (Substrate) 1.93 mins [8] [%],Hydroxy-Flufenamic Acid (1) 1.69 mins [8] [%],Hydroxy-Flufenamic Acid (2) 1.65 mins [8] [%],Hydroxylated Ratio 1:2 [8],% conversions (avg) Ruxolitinib [9] [%],"4′,5-dihydroxy-diclofenac 1.38 mins [10] [%]",further results
"aluC09M12: cytochrome P450 aluC09 mutant T291E; amino acid sequence SEQ ID NO: 12 (protein, listed as Amycolatopsis lurida) MTDVEETTATLPLARKCPFSPPPEYERLRRESPVSRVGLPSGQTAWALTRLEDIREMLSSPHFSSDRQSPSFPLMVARQIRREDKPFRPSLIAMDPPEHSRARRDVVGEFTVKRMKALQPRIQQIVDEHLDALLAGPKPADLVQALSLPVPSLVICELLGVPYSDHEFFQSCSSRMLSREVTAEERMTAFEQLENYLDELVTKKEANATEDDLLGRQILKQRETGEADHGELVGLAFLLLIAGHETTANMISLGTVTLLENPDQLAKIKADPGKTLAAIEELLRVFTIAEEATSRFATADVEIGGTLIRAGEGVVGLSNAGNHDPDGFENPDTFDIERGARHHVAFGFGVHQCLGQNLARLELQIVFDTLFRRVPGLRIAVPVDELPFKHDSTIYGLHALPVTW",31.9,23,5.4,50.8,46.0,9.7,2.5,5.3,5.8,34.1,2.1,94.6,5.4,7.2,95.9,2.0,2.1,0.9,48.9,1.8,4′-hydroxy-diclofenac (1) 1.62 mins [10]: 30.3%; 5-hydroxy-diclofenac (2) 1.58 mins [10]: 10.8%; Diclofenac (Substrate) 1.81 mins [10]: 58.0%; Hydroxylated Ratio hydroxy 1:hydroxy 2 [10]: 2.8; % conversions (avg) 4-pyrrolidylacetophenone [11]: 30.8%; Aceclofenac (Substrate) (1.80 mins) [12]: 25.2%; Dihydroxy-Aceclofenac (1.42 mins) [12]: 27.8%; Hydroxy-Aceclofenac (1) (1.64 min) [12]: 7.9%; Hydroxy-Aceclofenac (2) (1.60 min) [12]: 39.1%; Hydroxylated Ratio 2:1 [12]: 4.9; % conversions (avg) Bosentan [13]: 100%; % conversions (avg) Tofacitinib [14]: 0%; % conversions (avg) Buparvaquone [15]: 9.7%; % conversions (avg) Valsartan [16]: 38%
"aluC09M17: cytochrome P450 aluC09 mutant T291N; amino acid sequence SEQ ID NO: 16 (protein, listed as Amycolatopsis lurida) MTDVEETTATLPLARKCPFSPPPEYERLRRESPVSRVGLPSGQTAWALTRLEDIREMLSSPHFSSDRQSPSFPLMVARQIRREDKPFRPSLIAMDPPEHSRARRDVVGEFTVKRMKALQPRIQQIVDEHLDALLAGPKPADLVQALSLPVPSLVICELLGVPYSDHEFFQSCSSRMLSREVTAEERMTAFEQLENYLDELVTKKEANATEDDLLGRQILKQRETGEADHGELVGLAFLLLIAGHETTANMISLGTVTLLENPDQLAKIKADPGKTLAAIEELLRVFTIAENATSRFATADVEIGGTLIRAGEGVVGLSNAGNHDPDGFENPDTFDIERGARHHVAFGFGVHQCLGQNLARLELQIVFDTLFRRVPGLRIAVPVDELPFKHDSTIYGLHALPVTW",51.7,23.2,8.1,16.8,53.7,10.6,0.9,3.1,6.0,28.7,3.4,84.4,15.6,53.9,94.4,3.4,2.2,1.6,33.9,3.2,4′-hydroxy-diclofenac (1) 1.62 mins [10]: 44.8%; 5-hydroxy-diclofenac (2) 1.58 mins [10]: 21.8%; Diclofenac (Substrate) 1.81 mins [10]: 32.3%; Hydroxylated Ratio hydroxy 1:hydroxy 2 [10]: 2.1; % conversions (avg) 4-pyrrolidylacetophenone [11]: 21.7%; Aceclofenac (Substrate) (1.80 mins) [12]: 9.2%; Dihydroxy-Aceclofenac (1.42 mins) [12]: 43.2%; Hydroxy-Aceclofenac (1) (1.64 min) [12]: 6.9%; Hydroxy-Aceclofenac (2) (1.60 min) [12]: 40.8%; Hydroxylated Ratio 2:1 [12]: 5.9; % conversions (avg) Bosentan [13]: 100%; % conversions (avg) Tofacitinib [14]: 4.4%; % conversions (avg) Buparvaquone [15]: 17.9%; % conversions (avg) Valsartan [16]: 21.9%
